Test results from patent publication US20230381281A1, “PHARMACEUTICAL COMPOSITION COMPRISING GLUCAGON/GLP-1/GIP TRIPLE AGONIST OR LONG-ACTING CONJUGATE THEREOF FOR PREVENTING OR TREATING LUPUS-RELATED DISEASES” (HANMI PHARM. CO., LTD., priority 2020, published 2023).
Bridge positions count the residues as written; N and C are the ends. Square brackets hold non-standard residues; d marks the D form. Ends that are not written are not given here. * marks the point of attachment. Acetyl(2-(4-imidazolyl)) = O=C(Cc1c[nH]cn1)*; Aib = CC(C)(N)C(=O)O

What was measured:
human GLP-1 receptor [1] = biological target: T1, human GLP-1 receptor (Homo sapiens, UniProt P43220); assay: In vitro cAMP activity in human GLP-1 receptor-expressing CHO cells (LANCE cAMP kit); type: cell-based; details: long-acting conjugates; relative titer from cAMP EC50 compared to human GLP-1
T1 construct: expressed in transfected cells; host or cells: Chinese hamster ovary (CHO)
Method: (§1) In order to measure the activity of the triple agonists and long-acting conjugates thereof prepared according to Examples 1 and 2, the in-vitro cell activity was measured using cell lines transformed with GLP-1 receptor, glucagon (GCG) receptor, and GIP receptor, respectively.
(§2) The cell lines were transformed to express human GLP-1 receptor, human GCG receptor and human GIP receptor genes in Chinese hamster ovary (CHO), respectively, and are suitable for measuring the activities of GLP-1, GCG, and GIP. Therefore, the activity for each part was measured using each transformed cell line.
(§3) To measure the GLP-1 activity of the triple agonists and long-acting conjugates prepared according to Examples 1 and 2, human GLP-1 was diluted from 50 nM to […] by 4-fold serial dilution, and the triple agonists and long-acting conjugates thereof prepared according to Examples 1 and 2 were diluted from 400 nM to 0.00038 nM by 4-fold serial dilution. The culture medium was removed from the cultured human GLP-1 receptor-expressing CHO cells, 5 μl of each of the serially diluted materials was added to the cells, and then 5 μl of buffer containing cAMP antibody was added to the cells, followed by 15 minutes of incubation at room temperature. Then, cells were lysed by adding 10 μl of detection mix containing cell lysis buffer, and reacted at room temperature for 90 minutes. The cell lysate after the reaction had been completed, was applied to the LANCE cAMP kit (PerkinElmer, USA) to calculate the EC50 value through the accumulated cAMP, and then compared with each other.

human GCG receptor [2] = biological target: T2, human GCG receptor (Homo sapiens, UniProt P47871); assay: In vitro cAMP activity in human GCG receptor-expressing CHO cells (LANCE cAMP kit); type: cell-based; details: for In vitro activity compared to native peptide (%) vs Glucagon: long-acting conjugates, relative titer from cAMP EC50 compared to human GCG; for activity on the glucagon receptor: statement in words in the description
T2 construct: expressed in transfected cells; host or cells: Chinese hamster ovary (CHO)
Method: as §1, §2
as §3, with “GCG” for “GLP-1”

human GIP receptor [3] = biological target: T3, human GIP receptor (Homo sapiens, UniProt P48546); assay: In vitro cAMP activity in human GIP receptor-expressing CHO cells (LANCE cAMP kit); type: cell-based; details: long-acting conjugates; relative titer from cAMP EC50 compared to human GIP
T3 construct: expressed in transfected cells; host or cells: Chinese hamster ovary (CHO)
T3 sequence (P48546 22-466): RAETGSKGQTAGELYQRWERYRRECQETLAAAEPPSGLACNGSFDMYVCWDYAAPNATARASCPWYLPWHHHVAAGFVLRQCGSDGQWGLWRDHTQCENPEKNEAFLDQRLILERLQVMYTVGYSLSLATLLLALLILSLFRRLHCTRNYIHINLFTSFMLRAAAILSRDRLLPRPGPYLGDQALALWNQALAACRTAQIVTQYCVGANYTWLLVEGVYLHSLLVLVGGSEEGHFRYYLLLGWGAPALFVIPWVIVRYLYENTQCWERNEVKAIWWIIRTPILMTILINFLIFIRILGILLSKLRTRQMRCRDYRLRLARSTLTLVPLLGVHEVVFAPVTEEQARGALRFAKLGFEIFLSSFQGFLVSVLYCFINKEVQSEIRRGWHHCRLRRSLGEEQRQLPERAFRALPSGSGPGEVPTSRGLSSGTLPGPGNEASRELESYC
Method: as §1, §2
as §3, with “measure the GIP activity of” for “measure the GLP-1 activity of”, “long-acting conjugates thereof prepared according” for “long-acting conjugates prepared according”, “2, human GIP was diluted” for “2, human GLP-1 was diluted”, “cultured human GIP receptor-expressing CHO” for “cultured human GLP-1 receptor-expressing CHO”

human GLP-1 receptor [4] = biological target: human GLP-1 receptor (human, UniProt P43220 24-463); assay: cell-based or functional assay
human GCG receptor [5] = biological target: human GCG receptor (human, UniProt P47871 26-477); assay: cell-based or functional assay
human GIP receptor [6] = biological target: T4, human GIP receptor (human, UniProt P48546 22-466); assay: cell-based or functional assay
T4 sequence (looked up): T3 sequence (P48546 22-466)

Sequence of human GCG receptor (human, UniProt P47871 26-477) (P47871 26-477): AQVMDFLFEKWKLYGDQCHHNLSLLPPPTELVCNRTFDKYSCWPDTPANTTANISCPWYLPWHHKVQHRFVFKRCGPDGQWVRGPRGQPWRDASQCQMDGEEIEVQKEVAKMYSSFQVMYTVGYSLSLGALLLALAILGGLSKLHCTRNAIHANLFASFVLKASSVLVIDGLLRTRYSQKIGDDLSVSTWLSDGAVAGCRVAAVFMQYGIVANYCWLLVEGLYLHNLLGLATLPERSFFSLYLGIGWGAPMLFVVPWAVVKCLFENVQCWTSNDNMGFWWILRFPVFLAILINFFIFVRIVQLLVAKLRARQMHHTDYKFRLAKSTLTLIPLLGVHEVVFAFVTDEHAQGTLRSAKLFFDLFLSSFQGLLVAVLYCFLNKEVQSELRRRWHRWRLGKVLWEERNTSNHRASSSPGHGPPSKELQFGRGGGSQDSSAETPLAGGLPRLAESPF
T2 sequence (P47871 26-477): as above
T1 sequence (P43220 24-463): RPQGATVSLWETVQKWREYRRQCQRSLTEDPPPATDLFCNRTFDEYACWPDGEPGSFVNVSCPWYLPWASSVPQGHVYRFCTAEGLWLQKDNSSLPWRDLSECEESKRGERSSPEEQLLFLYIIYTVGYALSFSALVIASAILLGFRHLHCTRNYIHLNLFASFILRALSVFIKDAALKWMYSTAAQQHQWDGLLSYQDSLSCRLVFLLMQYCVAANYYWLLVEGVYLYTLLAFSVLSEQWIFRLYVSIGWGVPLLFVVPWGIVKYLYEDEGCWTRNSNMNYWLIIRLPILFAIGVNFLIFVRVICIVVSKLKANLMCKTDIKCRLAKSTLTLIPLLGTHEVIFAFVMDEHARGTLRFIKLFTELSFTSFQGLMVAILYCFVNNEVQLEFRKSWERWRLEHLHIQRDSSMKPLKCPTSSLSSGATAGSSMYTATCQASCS

## 21 (Y[Aib]QGTFTSDYSKYLDECRAKEFVQWLLDHHPSSGQPPPS; bridge 16-20) [compound 21]
Human GLP-1 receptor [1]
  In vitro activity compared to native peptide (%) vs GLP-1: 0.1%
Human GCG receptor [2]
  In vitro activity compared to native peptide (%) vs Glucagon: 1.6%
  activity on the glucagon receptor: very high activity
Human GIP receptor [3]
  In vitro activity compared to native peptide (%) vs GIP: 0.2%

## 22 (Y[Aib]QGTFTSDYSKCLDEKRAKEFVQWLLDHHPSSGQPPPS; bridge 16-20) [compound 22]
Human GLP-1 receptor [1]
  In vitro activity compared to native peptide (%) vs GLP-1: 0.1%
Human GCG receptor [2]
  In vitro activity compared to native peptide (%) vs Glucagon: 0.9%
  activity on the glucagon receptor: very high activity
Human GIP receptor [3]
  In vitro activity compared to native peptide (%) vs GIP: 0.5%

## 66 (Y[Aib]QGTFTSDYSKYLDECRAKDFVQWLLDHHPSSGQPPPS; bridge 16-20) [compound 66]
Human GCG receptor [2]
  activity on the glucagon receptor: very high activity

## 70 (Y[Aib]QGTFTSDYSKCLDEKRAKDFVQWLLDHHPSSGQPPPS; bridge 16-20) [compound 70]
Human GCG receptor [2]
  activity on the glucagon receptor: very high activity

## 97 (Y[Aib]QGTFTSDYSKYLDEKRAKEFVQWLLDCHPSSGQPPPS; bridge 16-20) [compound 97]
Human GCG receptor [2]
  activity on the glucagon receptor: very high activity

## {Acetyl(2-(4-imidazolyl))}-GQGTFTSDLSIQYDSEHQRDFIEWLKDTGPSSGAPPPSHG [Triple agonist of SEQ ID NO: 19]
Human GLP-1 receptor [4]
  In vitro activity compared to native peptide (%) vs GLP-1: < 0.1%
Human GCG receptor [5]
  In vitro activity compared to native peptide (%) vs Glucagon: < 0.1%
Human GIP receptor [6]
  In vitro activity compared to native peptide (%) vs GIP: < 0.1%

## H[Aib]QGTFTSDYSKYLDEKAQKEFVQWLLDTC (bridge 16-20) [Triple agonist of SEQ ID NO: 30]
Human GLP-1 receptor [4]
  In vitro activity compared to native peptide (%) vs GLP-1: 142%
Human GCG receptor [5]
  In vitro activity compared to native peptide (%) vs Glucagon: 0.7%
Human GIP receptor [6]
  In vitro activity compared to native peptide (%) vs GIP: 0.8%

## H[Aib]QGTFTSDCSKYLDSRAAQDFVQWLLDGGPSSGAPPPS [Triple agonist of SEQ ID NO: 26]
Human GLP-1 receptor [4]
  In vitro activity compared to native peptide (%) vs GLP-1: 64.5%
Human GCG receptor [5]
  In vitro activity compared to native peptide (%) vs Glucagon: 0.2%
Human GIP receptor [6]
  In vitro activity compared to native peptide (%) vs GIP: < 0.1%

## H[Aib]QGTFTSDYSKYLDEKAAKEFVQWLLNTC (bridge 16-20) [Triple agonist of SEQ ID NO: 29]
Human GLP-1 receptor [4]
  In vitro activity compared to native peptide (%) vs GLP-1: 38.5%
Human GCG receptor [5]
  In vitro activity compared to native peptide (%) vs Glucagon: 6%
Human GIP receptor [6]
  In vitro activity compared to native peptide (%) vs GIP: < 0.1%

## H[Aib]QGTFTSDYSKYLDEKACKEFVQWLLAQ (bridge 16-20) [Triple agonist of SEQ ID NO: 31]
Human GLP-1 receptor [4]
  In vitro activity compared to native peptide (%) vs GLP-1: 135%
Human GCG receptor [5]
  In vitro activity compared to native peptide (%) vs Glucagon: 2.2%
Human GIP receptor [6]
  In vitro activity compared to native peptide (%) vs GIP: 2.4%

## H[Aib]QGTFTSDYSKYLDEKRAQEFVCWLLAQKGKKNDWKHNIT [Triple agonist of SEQ ID NO: 28]
Human GLP-1 receptor [4]
  In vitro activity compared to native peptide (%) vs GLP-1: 17.2%
Human GCG receptor [5]
  In vitro activity compared to native peptide (%) vs Glucagon: 1.6%
Human GIP receptor [6]
  In vitro activity compared to native peptide (%) vs GIP: < 0.1%

## H[Aib]QGTFTSDCSKYLDERAAQDFVQWLLDGGPSSGAPPPS [Triple agonist of SEQ ID NO: 25]
Human GLP-1 receptor [4]
  In vitro activity compared to native peptide (%) vs GLP-1: 82.6%
Human GCG receptor [5]
  In vitro activity compared to native peptide (%) vs Glucagon: 0.1%
Human GIP receptor [6]
  In vitro activity compared to native peptide (%) vs GIP: < 0.1%

## {Acetyl(2-(4-imidazolyl))}-GQGTFTSDLSKQMDSERAREFIEWLKNTGPSSGAPPPSHG [Triple agonist of SEQ ID NO: 18]
Human GLP-1 receptor [4]
  In vitro activity compared to native peptide (%) vs GLP-1: < 0.1%
Human GCG receptor [5]
  In vitro activity compared to native peptide (%) vs Glucagon: < 0.1%
Human GIP receptor [6]
  In vitro activity compared to native peptide (%) vs GIP: < 0.1%

## Y[Aib]QGTFTSDYSKYLDECRAKEFVQWLKNGGPSSGAPPPS (bridge 16-20) [Triple agonist of SEQ ID NO: 24]
Human GLP-1 receptor [4]
  In vitro activity compared to native peptide (%) vs GLP-1: 41.2%
Human GCG receptor [5]
  In vitro activity compared to native peptide (%) vs Glucagon: 9.3%
Human GIP receptor [6]
  In vitro activity compared to native peptide (%) vs GIP: < 0.1%

## {Acetyl(2-(4-imidazolyl))}-GQGTFTSDLSIQYEEEAQQDFVEWLKDTGPSSGAPPPSHG [Triple agonist of SEQ ID NO: 20]
Human GLP-1 receptor [4]
  In vitro activity compared to native peptide (%) vs GLP-1: < 0.1%
Human GCG receptor [5]
  In vitro activity compared to native peptide (%) vs Glucagon: < 0.1%
Human GIP receptor [6]
  In vitro activity compared to native peptide (%) vs GIP: < 0.1%

## H[Aib]QGTFTSDYSKYLDERACQDFVQWLLDQGGPSSGAPPPS [Triple agonist of SEQ ID NO: 27]
Human GLP-1 receptor [4]
  In vitro activity compared to native peptide (%) vs GLP-1: 83.1%
Human GCG receptor [5]
  In vitro activity compared to native peptide (%) vs Glucagon: 0.8%
Human GIP receptor [6]
  In vitro activity compared to native peptide (%) vs GIP: 0.9%

## Y[Aib]QGTFTSDYSKYLDECRAKEFVQWLLDHHPSSGQPPPS (bridge 16-20) [Triple agonist of SEQ ID NO: 21]
Human GLP-1 receptor [4]
  In vitro activity compared to native peptide (%) vs GLP-1: 17.8%
Human GCG receptor [5]
  In vitro activity compared to native peptide (%) vs Glucagon: 267%
Human GIP receptor [6]
  In vitro activity compared to native peptide (%) vs GIP: 22.7%

## {Acetyl(2-(4-imidazolyl))}-GQGTFTSDLSKQMDEERAREFIEWLLAQKPSSGAPPPSHG [Triple agonist of SEQ ID NO: 17]
Human GLP-1 receptor [4]
  In vitro activity compared to native peptide (%) vs GLP-1: 0.2%
Human GCG receptor [5]
  In vitro activity compared to native peptide (%) vs Glucagon: < 0.1%
Human GIP receptor [6]
  In vitro activity compared to native peptide (%) vs GIP: < 0.1%

## H[Aib]QGTFTSDYSKYLDEKACKDFVQWLLDGGPSSGAPPPS (bridge 16-20) [Triple agonist of SEQ ID NO: 32]
Human GLP-1 receptor [4]
  In vitro activity compared to native peptide (%) vs GLP-1: 151%
Human GCG receptor [5]
  In vitro activity compared to native peptide (%) vs Glucagon: 1.7%
Human GIP receptor [6]
  In vitro activity compared to native peptide (%) vs GIP: 8.8%

## Y[Aib]QGTFTSDYSKYLDECRAKEFVQWLLAQKGKKNDWKHNIT (bridge 16-20) [Triple agonist of SEQ ID NO: 23]
Human GLP-1 receptor [4]
  In vitro activity compared to native peptide (%) vs GLP-1: 4.01%
Human GCG receptor [5]
  In vitro activity compared to native peptide (%) vs Glucagon: 9.3%
Human GIP receptor [6]
  In vitro activity compared to native peptide (%) vs GIP: < 0.1%

## Y[Aib]QGTFTSDYSKCLDEKRAKEFVQWLLDHHPSSGQPPPS (bridge 16-20) [Triple agonist of SEQ ID NO: 22]
Human GLP-1 receptor [4]
  In vitro activity compared to native peptide (%) vs GLP-1: 20.1%
Human GCG receptor [5]
  In vitro activity compared to native peptide (%) vs Glucagon: 140%
Human GIP receptor [6]
  In vitro activity compared to native peptide (%) vs GIP: 59.7%

## H[Aib]QGTFTSDVSSYLLGQAAKQFIAWLVKGGGPSSGAPPPSC [Triple agonist of SEQ ID NO: 3]
Human GLP-1 receptor [4]
  In vitro activity compared to native peptide (%) vs GLP-1: 1.8%
Human GCG receptor [5]
  In vitro activity compared to native peptide (%) vs Glucagon: < 0.1%
Human GIP receptor [6]
  In vitro activity compared to native peptide (%) vs GIP: < 0.1%

## H[Aib]QGTFTSDYSIAMDEIHQKDFVNWLLAQKC (bridge 16-20) [Triple agonist of SEQ ID NO: 33]
Human GLP-1 receptor [4]
  In vitro activity compared to native peptide (%) vs GLP-1: 24.5%
Human GCG receptor [5]
  In vitro activity compared to native peptide (%) vs Glucagon: < 0.1%
Human GIP receptor [6]
  In vitro activity compared to native peptide (%) vs GIP: 10.4%
